The numbers were not newly measured in patent publication US7449180B2, “Macroscopic scaffold containing amphiphilic peptides encapsulating cells” (priority 2001, dated 2008), which cites them from elsewhere.

Details of the data set: key: β denotes beta-sheet; α denote alpha-helix; r.c. denotes random coil. The note with it: secondary structure of the peptide.
As for n-(ADADADADARARARAR)-c [DAR32-IV], the Structure result is on record as “α/β”.

In the case of n-AEAEAEAEAKAK-c [EAK12], the Structure result is “α/β”.

With n-AEAEAEAEAKAKAKAK-c [EAK16-IV], the Structure entry is recorded as “β”.

On to n-AEAEAHAH-c [EAH8-II], for which the Structure entry is “r.c”.

For the substance n-AEAEAHAHAEAEAHAH-c [EAH16-II], the Structure result was “β”.

On to n-AEAEAKAK-c [EAK8-II], for which the Structure result is on record as “r.c”.

Take n-AEAEAKAKAEAEAKAK-c [EAK16-II]: the Structure result is “β”.

Take n-AEAKAEAK-c [EAKA8-I]: the Structure result is recorded as “r.c”.

As for n-AEAKAEAKAEAKAEAK-c [EAKA16-I], the Structure entry is given as “β”.

n-FEFEFKFKFEFEFKFK-c [EFK16-II]: the Structure result was “β”.

As to n-FEFKFEFK-c [EFK8-II], the Structure entry was “β”.

With n-HEHEHKHK-c [EHK8-I], the Structure result was “r.c”.

Consider n-HEHEHKHKHEHEHKHK-c [EHK16], for which the Structure entry is on record as “r.c”.

For n-KADAKADA-c [KADA8-I], the Structure result was “r.c”.

n-KADAKADAKADAKADA-c [KADA16-I]: the Structure result is listed as “β”.

For the substance n-KAKAKAKAEAEAEAEA-c [KAE16-IV], the Structure result is listed as “β”.

n-LELELKLK-c [ELK8-II]: the Structure result was “r.c”.

With n-LELELKLKLELELKLK-c [ELK16-II], the Structure entry is listed as “β”.

For n-RADARADA-c [RADA8-I], the Structure result is reported as “r.c”.

As for n-RADARADARADARADA-c [RADA16-I], the Structure result is “β”.

As for n-RADARGDARADARGDA-c [RGDA16-I], the Structure entry is listed as “r.c”.

For n-RAEARAEA-c [RAEA8-I], the Structure result is listed as “r.c”.

On to n-RAEARAEARAEARAEA-c [RAEA16-I], for which the Structure result is given as “β”.

In the case of n-RARADADA-c [RAD8-II], the Structure result was “r.c”.

For the substance n-RARADADARARADADA-c [RAD16-II], the Structure result was “β”.

On to n-RARARARADADADADA-c [RAD16-IV], for which the Structure result is given as “β”.

As for n-RFRFRFRFRFRFRFRFRFRF-c [RF20*], the Structure result is “β”.

As for n-VEVEVEVEVEVEVEVEVEVE-c [VE20*], the Structure entry is listed as “β”.
